Results: the supplement of paper PMC9170038

How the values were obtained:
[1] = system: K4 kissing-loop RNA reporter; assay: apparent KD of K4 kissing-loop reporter; higher = weaker reporter binding; conditions: Eterna round: R107;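 note: bound reporter read as fluorescence of individual clusters on recovered sequencing chips by microscopy, with normalized cluster intensities fitted with a binding model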
Procedure: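 RNA-MaP round R107: designed RNA switches with theophylline, tryptophan, arginine or FMN aptamers are transcribed on-chip within common flanks. They are titrated with a labelled K4 kissing-loop RNA reporter in RNA-MaP buffer (100 mM Tris pH 7.5, 80 mM KCl, 4 mM MgCl2), without ligand or with the indicated ligand. Median apparent KD per design.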

[2] = system: MS2 coat protein; assay: apparent KD of MS2 coat protein; designed switch direction (-1 OFF switch, 1 ON switch): -1; higher = weaker reporter binding
Procedure, shortened: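 The buffer was Tris-HCl pH 7.5 with KCl, MgCl2, BSA, DTT, tRNA and Tween-20. In it, SNAP-549-labelled MS2 coat protein was titrated in doubling steps from 0.7 or 1.5 nM to 3 µM over chip-bound RNA switches transcribed by stalled E. coli RNA polymerase on Illumina chips. Apparent KD is the per-design median over clusters of curve fits to normalised fluorescence.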

[3] = input ligand: theophylline 20 uM
[4] = input ligand: tryptophan 2.4 mM
[5] = input ligand: microRNA oligo, concentration not stated
[6] = Eterna round: R95, input ligand: microRNA oligo, concentration not stated
[7] = Eterna round: R95, input ligand: FMN 200 uM
[8] = Eterna round: R95, input ligand: none

Sequence | apparent KD of K4 kissing-loop reporter ([1]; input ligand: FMN 200 uM) [nM] | apparent KD of K4 kissing-loop reporter ([1]; input ligand: arginine 13.2 mM) [nM] | apparent KD of K4 kissing-loop reporter ([1]; input ligand: none) [nM] | apparent KD of K4 kissing-loop reporter [1, 3] [nM] | apparent KD of K4 kissing-loop reporter [1, 4] [nM] | apparent KD of MS2 coat protein ([2]; input ligand: FMN 200 uM) [nM] | apparent KD of MS2 coat protein [2, 5] [nM] | apparent KD of MS2 coat protein ([2]; input ligand: none) [nM] | other results
AAAAUAAAAGGUCACCCAGUGAUGUUGGAAGGAGCGUGCGAAAGCACAGGUAGGUCGCCAACCUAAAAGUGACCAGGGAAACCCA [#SwitchBubble 7 #K4Early] | 594 | 253 | 171 | 183 | 276 |  |  |  | 
AAAAUAAACCAGUGAUGUUGGUGUCUGGAUACCAGCGACGAAAGUCGCCCUUGGCAGCUAUGGACGUACAAAAUAAGUACGUCCU [MatMod 7 - Jieux - Same State - Theophylline A] | 704 | 485 | 622 | 637 | 510 |  |  |  | 
AAAAUAACCCAGUGAUGUUGGUAACCAGAUACCAGCGACGAAAGUCGCCCUUGGCAGCUGUGGACGUACAAAAUAAGUACGUCCU | 686 | 765 | 859 | 583 | 649 |  |  |  | 
AAAAUAAUCCAGUGAUGUUGGUAUCCAGAUACCAGCGACGAAAGUCGCCCUUGGCAGCUGUGGACGUACAAAAUAAGUACGUCCU [#OpenEnded 9 #StaticStem #K4Early] | 502 | 386 | 535 | 842 | 630 |  |  |  | 
AAAAUUAUCUGAAGGAGCGUGAAAUAAUAUUAAACAUAACAACCCAGUGAUGUUGGGUUAUCACAGGUAGGUCGCAGAUGUAGAA [Same State Arginie B GF 25] | 106 | 113 | 108 | 115 | 90.8 |  |  |  | 
AAACAUCACUGGGAGUGAUGUUCUCAGUGACGAGGACCGGUACGGCCGCCACUCGCGAGAGAACUAGUCUAGACUUGACUGCAUU [Excl Tryptophan A V14] | 386 | 366 | 356 | 425 | 428 |  |  |  | 
AAACAUCACUGGGAGUGAUGUUCUCAGUGACGAGGACCGGUACGGCCGCCACUCGCGAGAGAUAUAAUUAAGUAAUGACUUCAUU [Excl Tryptophan A V7] | 241 | 205 | 231 | 246 | 287 |  |  |  | 
AAACAUCACUGGGAGUGAUGUUCUCAGUGACGAGGACCGGUACGGCCGCCACUCGCGAGAGAUAUAGUCUAGUAUUGACUGCAUU [Excl Tryptophan A V11] | 242 | 244 | 231 | 339 | 348 |  |  |  | 
AAACAUUGGUCGGAUACCAGCUUGAUCGGAAACGAUCUGCUGGAGUGAUGUUCCAAGUAAAGCCCUUGGCAGCCGACCGAUGAAA [MAT - Same State Theophlline B - Mod of Eli - D17] | 133 | 62.8 | 55.6 | 143 | 74.5 |  |  |  | 
AAACAUUGGUCUGAUACCAGCUUGAUCGGAAAACGAUCUGCUGGAGUGAUGUUCCAAUAAAGCCCUUGGCAGCAGACCGAUGAAA [MAT - Same State Theophlline B - Mod of Eli - D13] | 823 | 444 | 818 | 684 | 722 |  |  |  | 
AAACAUUGGUCUGAUACCAGCUUGAUCGGAAACGAUCUGCUGGAGUGAUGUUCCAAGUAAAGCCCUUGGCAGCAGACCGAUGAAA [MAT - Same State Theophlline B - Mod of Eli - D16] | 121 | 69.6 | 149 | 192 | 115 |  |  |  | 
UUUUUACAUGAAGGAUAUACUUAACAUGAGGAUCACCCAUGUGGUGUUGUGAGUGAGUGAGUUUAGUAGAAGGUCAAUUAUUUU [JMF's solution 22] (Eterna round: R96, puzzle: Exclusion NG 2) |  |  |  |  |  | 556 | 241 | 314 | 
UUUUUACAUGAGGAUCACCCAUGUCAGGAUAUCGUUAUAUUUUAUUAUUUUAUUUUUUCGAGAAGGGACUAUUA [My solution] (puzzle: Exclusion 1) |  |  |  |  |  |  |  |  | apparent KD of MS2 coat protein [2, 6]: 74.6 nM
UUUUUACAUGAGGAUCACCCAUGUCAGGAUAUGGUUAUAUUUUAUUAUUUUAUUUUUUCCAGAAGGGACUAUUA [My solution] (puzzle: Exclusion 1) |  |  |  |  |  |  |  |  | apparent KD of MS2 coat protein [2, 6]: 273 nM
UUUUUAUAACAAGGAUAUACUAAACAUGAGGAUCACCCAUGUAAUAUUAUGAGUGAGAGAGAUAAGUAGAAGGUGUAUUAUUUU [JMF solution 3] (Eterna round: R96, puzzle: Exclusion NG 2) |  |  |  |  |  |  | 99.6 |  | 
UUUUUAUAAGGAUAUAUGUGGAUAAUUUUUAUAUGAAAAUUACAUGAGGAUCACCCAUGUAGAAGGUAUGGAGG [-13.9, -11.8 kcal, 35% A] (Eterna round: R97, puzzle: Exclusion 2) |  |  |  |  |  | 24 |  | 39.2 | 
UUUUUAUAUGAAGGAUAUACUUAACAUGAGGAUCACCCAUGUGGUGUUGUGAGUGAGAGAGUUUAGUAGAAGGUCAAUUAUUUU [JMF's solution 5] (Eterna round: R96, puzzle: Exclusion NG 2) |  |  |  |  |  | 714 | 280 | 300 | 

Sequence | apparent KD of K4 kissing-loop reporter ([1]; input ligand: FMN 200 uM) [nM] | apparent KD of K4 kissing-loop reporter ([1]; input ligand: arginine 13.2 mM) [nM] | apparent KD of K4 kissing-loop reporter ([1]; input ligand: none) [nM] | apparent KD of K4 kissing-loop reporter [1, 3] [nM] | apparent KD of K4 kissing-loop reporter [1, 4] [nM] | apparent KD of MS2 coat protein ([2]; input ligand: FMN 200 uM) [nM] | apparent KD of MS2 coat protein [2, 5] [nM] | apparent KD of MS2 coat protein ([2]; input ligand: none) [nM] | other results
UUUUUAUAUGAAGGAUAUACUUAACAUGAGGAUCACCCAUGUGGUGUUGUGAGUGAGUGAGUUUAGUAGAAGGUCAAAGAUUUU [JMF's solution 57] (Eterna round: R96, puzzle: Exclusion NG 2) |  |  |  |  |  | 1550 | 304 | 295 | 
UUUUUAUAUGAAGGAUAUACUUAACAUGAGGAUCACCCAUGUGGUGUUGUGAGUGAGUGAGUUUAGUAGAAGGUCAAGUAUUGU [JMF's solution 39] (Eterna round: R96, puzzle: Exclusion NG 2) |  |  |  |  |  | 891 | 347 | 441 | 
UUUUUAUAUGAAGGAUAUACUUAACAUGAGGAUCACCCAUGUGGUGUUGUGAGUGAGUGAGUUUAGUAGAAGGUCAAUGAUUGU [JMF's solution 60] (Eterna round: R96, puzzle: Exclusion NG 2) |  |  |  |  |  | 918 | 216 | 369 | 
UUUUUAUAUGAAGGAUAUACUUAACAUGAGGAUCACCCAUGUGGUGUUGUGAGUGAGUGAGUUUAGUAGAAGGUCAAUUCUUUU [JMF's solution 11] (Eterna round: R96, puzzle: Exclusion NG 2) |  |  |  |  |  | 957 | 395 | 510 | 
UUUUUCAGGCCAGAUCCUCACAUGAGGAUCACCCAUGUGCUCGUCUGUUUUCGCACUAUCACGUUUGUGAUAGUGCU [Level Boss var2-12] (puzzle: Sensor v3, turn-off variant 1) |  |  |  |  |  |  |  |  | apparent KD of MS2 coat protein [2, 7]: 207 nM; apparent KD of MS2 coat protein [2, 6]: 33.5 nM; apparent KD of MS2 coat protein [2, 8]: 216 nM
UUUUUCAGGCCAGAUCCUCACAUGAGGAUCACCCAUGUGCUCGUCUGUUUUCGCACUAUCUUUUUUUUGAUAGUGCU [Level Boss var2-13] (puzzle: Sensor v3, turn-off variant 1) |  |  |  |  |  |  |  |  | apparent KD of MS2 coat protein [2, 7]: 291 nM; apparent KD of MS2 coat protein [2, 6]: 26.8 nM; apparent KD of MS2 coat protein [2, 8]: 309 nM
UUUUUCAGGCCAGAUCCUCACAUGAGGAUCACCCAUGUGCUCGUCUGUUUUCGCACUAUCUUUUUUUUGUUAGUGCU [Level Boss var2-14] (puzzle: Sensor v3, turn-off variant 1) |  |  |  |  |  |  |  |  | apparent KD of MS2 coat protein [2, 7]: 287 nM; apparent KD of MS2 coat protein [2, 6]: 22.7 nM; apparent KD of MS2 coat protein [2, 8]: 322 nM
UUUUUCUUUGUAGGAUAUCGUUUUUUUUUUUUUCGAGAAGGACAUGAGGAUCACCCAUGUUUCAAAAUUUUUUUUUUUUUUUUU [First try] (Eterna round: R96, puzzle: Exclusion NG 1) |  |  |  |  |  | 25.1 | 13.3 | 17.8 | 
UUUUUGUCAGGAUAUGACUAGAUGCACGUUAGUGUGUUUACUUAGAAGGGACAUGAGGAUCACCCAUGUAUUCC [Bring Us a Shrubbery-14] (puzzle: Exclusion 4) |  |  |  |  |  |  |  |  | apparent KD of MS2 coat protein [2, 6]: 26.4 nM
UUUUUGUCAGGAUAUGAGUCGUAGAACAAUAGUACUACGUCUCAGAAGGGACAUGAGGAUCACCCAUGUGCCUC [Fiskers Ex 4 Super Stable 44 mod 28] (puzzle: Exclusion 4) |  |  |  |  |  |  |  |  | apparent KD of MS2 coat protein [2, 6]: 26.2 nM
UUUUUGUCAGGAUAUGCGUAGUAGAACAAUAGUACUACUACGUAGAAGGGACAUGAGGAUCACCCAUGUUCCUC [Fiskers Ex 4 Super stable 44 mod 17] (puzzle: Exclusion 4) |  |  |  |  |  |  |  |  | apparent KD of MS2 coat protein [2, 6]: 13.9 nM
UUUUUGUGAGGAUAUGCGUAGUAGAACAAUAGUACUACUACGUAGAAGGCACAUGAGGAUCACCCAUGUUCCUC [Fiskers Ex 4 Super stable 44 mod 15] (Eterna round: R96, puzzle: Exclusion 4) |  |  |  |  |  | 339 | 34.7 | 43.1 | 
UUUUUGUGAGGAUAUGCGUAGUAGAACAAUAGUACUACUACGUAGAAGGCACAUGAGGAUCACCCAUGUUCCUC [Fiskers Ex 4 Super stable 44 mod 15] (puzzle: Exclusion 4) |  |  |  |  |  |  |  |  | apparent KD of MS2 coat protein [2, 6]: 36.4 nM
UUUUUUGGGCAAGGAUAUCCUGUGCGGUUCCGGCUCGUGUCUGUUACAUGAGGAUCACCCAUGUGGGAGAAGGUGCCUGUGGUU [Design 86] (Eterna round: R96, puzzle: Exclusion NG 2) |  |  |  |  |  | 183 | 37.3 | 43 | 
UUUUUUGUUGUGAGGAUAUCGUAUUCUUUUUGUUACGAGAAGGCACAUGAGGAUCACCCAUGUUUCUUGAUGUU [JR_BMOE4_Sub067] (puzzle: Brourd's mod of Exclusion 4) |  |  |  |  |  |  |  |  | apparent KD of MS2 coat protein [2, 6]: 15.3 nM
UUUUUUUGGCAAGGAUAUCCUGUGCGGUUCCGGCUCGUGUCUGUUACAUGAGGAUCACCCAUGUGGGAGAAGGUGCCUGUGGUU [Design 87] (Eterna round: R96, puzzle: Exclusion NG 2) |  |  |  |  |  | 82.8 | 36.8 | 32.8 | 
UUUUUUUUGCGAGGAUAUGCAUUUAGUUAGUUAGCAGAAGGCGCGUUUCUAUACUCCUCUUCGUACAUGAGGAUCACCCAUGUU [JR_ExcNG1_Sub032] (Eterna round: R96, puzzle: Exclusion NG 1) |  |  |  |  |  | 74.9 | 35.7 | 44.8 | 
